Molecular target: CD122/CD132 receptor on cells of human PBMCs (human) (UniProt P14784)
Assay: cell-based or functional assay

Sequence of CD122/CD132 receptor on cells of human PBMCs (human) (P14784 27-551, chain 1 of 2): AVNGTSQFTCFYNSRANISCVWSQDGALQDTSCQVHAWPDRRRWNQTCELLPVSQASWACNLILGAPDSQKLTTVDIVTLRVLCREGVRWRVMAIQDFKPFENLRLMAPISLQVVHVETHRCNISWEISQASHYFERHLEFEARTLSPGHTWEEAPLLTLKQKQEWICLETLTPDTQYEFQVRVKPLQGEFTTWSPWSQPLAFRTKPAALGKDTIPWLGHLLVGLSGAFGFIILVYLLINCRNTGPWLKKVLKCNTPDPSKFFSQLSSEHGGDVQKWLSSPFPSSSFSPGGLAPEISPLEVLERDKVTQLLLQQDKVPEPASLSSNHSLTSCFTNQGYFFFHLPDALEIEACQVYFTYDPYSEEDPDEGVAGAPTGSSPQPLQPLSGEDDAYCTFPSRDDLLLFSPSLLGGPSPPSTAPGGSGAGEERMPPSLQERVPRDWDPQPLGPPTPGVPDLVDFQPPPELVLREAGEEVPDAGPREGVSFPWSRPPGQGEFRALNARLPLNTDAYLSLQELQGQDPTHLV
Sequence of CD122/CD132 receptor on cells of human PBMCs (human) (P31785 23-369, chain 2 of 2, further chain): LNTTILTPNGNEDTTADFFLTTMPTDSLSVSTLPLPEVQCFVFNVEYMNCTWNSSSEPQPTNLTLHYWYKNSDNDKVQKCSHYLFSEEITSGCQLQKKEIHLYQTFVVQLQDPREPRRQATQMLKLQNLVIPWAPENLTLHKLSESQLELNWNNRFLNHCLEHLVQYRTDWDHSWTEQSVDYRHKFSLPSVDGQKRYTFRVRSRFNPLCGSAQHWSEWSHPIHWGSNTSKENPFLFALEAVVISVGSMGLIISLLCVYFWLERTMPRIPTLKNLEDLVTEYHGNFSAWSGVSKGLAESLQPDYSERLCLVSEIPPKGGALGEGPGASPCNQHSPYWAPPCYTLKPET

pSTAT5 EC50, Treg (human PBMCs): 0.37 nM
pSTAT5 Max. Signal, Treg (normalised to V69A/Q74P): 0.5
Substance: C-term N88D: irrelevant antibody with IL-2 N88D fused to its C-terminus (IgG-(IL-2N88D)2 of Peterson et al.)
